Results on one protein are retold here after article PMC10598741, “Comparative analysis of the physical properties of murine and human S100A7: Insight into why zinc piracy is mediated by human but not murine S100A7” (The Journal of Biological Chemistry, 2023).

This data set concerns the molecule itself. Put plainly: crystal structure; Ca2+-loaded mS100A7ΔC at 12 to 14 mg/ml in 20 mM Tris pH 8.0, 100 mM NaCl, 1% glycerol, 1 mM TCEP, 2 mM CaCl2; crystals in 0.1 M potassium thiocyanate, 20% PEG MME 2K, 0.01 M strontium chloride, 20 °C; space group P212121, 1.69 Å.

B1: mouse S100A7 tailless (mS100A7ΔC), deletion mutant mS100A7(1-100) (domain or fragment, UniProt Q6S5I3 1-100, looked up)
chain: MPDTPVEDSLFQIIHCFHHYAAREGDKETLSLEELKALLLDSVPRFMDTLGRRQPYYITELFRAADKNKDNQICFDEFLYILGKLVKDYHLQFHRQLCAH
notes: mouse S100A7 (S100A15a), UniProt Q6S5I3, residues 1-100: truncated at His100, lacks the last eight residues of the C-terminal tail; Gene synthesised and subcloned in pET11a (NdeI/BamHI); no tag is mentioned; Crystallised Ca2+-loaded; residues R95-H100 are poorly defined in the structure; also called murine S100A7ΔC; S100A15a; source: E. coli BL21 RIL, purified (supernatant heated to 85 °C, DEAE …)
For the protein B1, the binding result is given as “binds”.
